This is an account of results in patent publication US20210396761A1 (AICURIS, published 2021).

In general, IC50 refers to the concentration that inhibits the measured activity by half. The EC50 is the concentration needed to bring the measured effect to its halfway point.

T1: His-tagged pUL50 (HCMV groove protein, soluble recombinant) (human cytomegalovirus (HCMV)), P16791
T1 chain: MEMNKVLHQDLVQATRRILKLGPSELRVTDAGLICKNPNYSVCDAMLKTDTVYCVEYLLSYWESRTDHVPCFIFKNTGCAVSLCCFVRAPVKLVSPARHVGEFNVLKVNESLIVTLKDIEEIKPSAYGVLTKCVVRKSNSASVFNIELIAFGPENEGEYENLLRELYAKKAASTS

T2: HCMV pUL50, C-terminally fused to the HA epitope (pcDNA-UL50-HA, pHM2589) (human cytomegalovirus (HCMV) strain …, UniProt P16791 1-397)
T2 sequence: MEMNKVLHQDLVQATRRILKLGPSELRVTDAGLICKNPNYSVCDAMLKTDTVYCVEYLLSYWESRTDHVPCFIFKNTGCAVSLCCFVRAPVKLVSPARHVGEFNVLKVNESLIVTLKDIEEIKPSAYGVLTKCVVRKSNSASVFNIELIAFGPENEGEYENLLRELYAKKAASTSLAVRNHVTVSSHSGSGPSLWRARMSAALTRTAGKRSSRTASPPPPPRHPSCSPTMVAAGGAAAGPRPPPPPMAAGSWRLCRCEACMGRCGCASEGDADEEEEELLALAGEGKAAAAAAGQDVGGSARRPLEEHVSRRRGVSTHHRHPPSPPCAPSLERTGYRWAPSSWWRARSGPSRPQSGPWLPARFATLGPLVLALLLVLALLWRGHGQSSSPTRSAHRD

T3: BFLF2 (EBV hook protein, soluble recombinant) (Epstein-Barr virus (EBV), UniProt P0CK47 78-318)
T3 sequence: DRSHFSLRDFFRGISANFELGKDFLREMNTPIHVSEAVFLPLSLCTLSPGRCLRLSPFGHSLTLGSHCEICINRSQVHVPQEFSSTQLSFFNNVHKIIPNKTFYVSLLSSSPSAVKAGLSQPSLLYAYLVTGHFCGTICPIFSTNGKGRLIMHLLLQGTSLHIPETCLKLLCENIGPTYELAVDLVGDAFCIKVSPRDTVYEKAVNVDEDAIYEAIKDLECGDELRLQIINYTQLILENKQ

B1: HCMV hook peptide (Ac-pUL53 59-87-Aoa-Lys(Bio)-NH2) (peptide)
peptide: LTLHDLHDIFREHPELELKYLNMMKMAITK
modifications: not checked
B2: HCMV pUL53, C-terminally fused to the Flag epitope (pcDNA-UL53-Flag, pHM2590) (other)
chain: MSSVSGVRTPRERRSALRSLLRKRRQRELASKVASTVNGATSANNHGEPPSPADARPRLTLHDLHDIFREHPELELKYLNMMKMAITGKESICLPFNFHSHRQHTCLDISPYGNEQVSRIACTSCEDNRILPTASDAMVAFINQTSNIMKNRNFYYGFCKSSELLKLSTNQPPIFQIYYLLHAANHDIVPFMHAEDGRLHMHVIFENPDVHIPCDCITQMLTAAREDYSVTLNIVRDHVVISVLCHAVSASSVKIDVTILQRKIDEMDIPNDVSESFERYKELIQELCQSSGNNLYEEATSSYAIRSPLTASPLHVVSTNGCGPSSSSQSTPPHLHPPSQATQPHHYSHHQSQSQQHHHRPQSPPPPLFLNSIRAPDYKDDDDK
notes: also called pUL53-Flag; Flag-tagged pUL53
B3: His-tagged BFRF1 (EBV groove protein, soluble recombinant) (other)
chain: MASPEERLLDELNNVIVSFLCDSGSLEVERCSGAHVFSRGSSQPLCTVKLRHGQIYHLEFVYKFLAFKLKNCNYPSSPVFVISNNGLATTLRCFLHEPSGLRSGQSGPCLGLSTDVDLPKNSIIMLGQDDFIKFKSPLVFPAELDLLKSMVVCRAYITEHRTTMQFLVFQAANAQKASRVMDMISDMSQQLS
notes: also called His-tagged groove protein
B4: EBV BFRF1, C-terminally fused to the HA epitope (pcDNA-BFRF1-HA, pHM4697) (other)
chain: MASPEERLLDELNNVIVSFLCDSGSLEVERCSGAHVFSRGSSQPLCTVKLRHGQIYHLEFVYKFLAFKLKNCNYPSSPVFVISNNGLATTLRCFLHEPSGLRSGQSGPCLGLSTDVDLPKNSIIMLGQDDFIKFKSPLVFPAELDLLKSMVVCRAYITEHRTTMQFLVFQAANAQKASRVMDMISDMSQQLSRSGQVEDTGARVTGGGGPRPGVTHSGCLGDSHVRGRGGWDLDNFSEAETEDEASYAPWRDKDSWSESEAAPWKKELVRHPIRRHRTRETRRMRGSHSRVEHVPPETRETVVGGAWRYSWRATPYLARVLAVTAVALLLMFLRWT
notes: also called EBC BFRF1-HA; HA-tagged BFRF1
B5: EBV hook peptide (Ac-BFLF2 80-108-Aoa-Lys(Bio)-NH2) (peptide)
peptide: Ac-SHFSLRDFFRGISANFELGKDFLREMNTP[Aoa]K(Bio)-NH2
modifications: reading uncertain
B6: VZV Orf24, C-terminally fused to the HA epitope (pcDNA-Orf24-HA, pHM4695) (other)
chain: MSRRTYVRSERRRGCGDNLLQRIRLVVPSALQCCDGDLPIFDPQRPPARCVFQFNGEDNVSEAFPVEYIMRLMANWAQVDCDPYIKIQNTGVSVLFQGFFFRPTNAPVAEVSIDSNNVILSSTLSTGINLSALESIKRGGGIDRRPLQALMWVNCFVRMPYVQLSFRFMGPEDPSRTIKLMARATDAYMYKETGNNLDEYIRWRPSFRSPPENGSPNTSVQMQSDIKPALPDTQTTRVWKLALPVANVTYALFIVIVLVVVLGAVLFWK
B7: VZV Orf27, C-terminally fused to the Flag epitope (pcDNA-Orf27-Flag, pHM4696) (other)
chain: MHLKPTRFFHANQPPMPHSYEMEDLCFDDMQYRWSPSNTPYRSMSRRYKSVSRSGPSMRVRSRTPCRRQTIRGKLMSKERSVYRHYFNYIARSPPEELATVRGLIVPIIKTTPVTLPFNLGQTVADNCLSLSGMGYHLGLGGYCPTCTASGEPRLCRTDRAALILAYVQQLNNIYEYRVFLASILALSDRANMQAASAEPLLSSVLAQPELFFMYHIMREGGMRDIRVLFYRDGDAGGFMMYVIFPGKSVHLHYRLIDHIQAACRGYKIVAHVWQTTFLLSVCRNPEQQTETVVPSIGTSDVYCKMCDLNFDGELLLEYKRLYALFDDFVPPRDYKDDDDK

Assay [1] addresses T1, His-tagged pUL50 (HCMV groove protein, …). Nature of the assay: competitive ELISA, inhibition of His-tagged pUL50 binding to coated pUL53. (An ELISA detects its analyte on a solid surface through an enzyme-linked reagent.)
Assay [2] deals with T2, HCMV pUL50, C-terminally fused to the …. Nature of the assay: coimmunoprecipitation, transiently transfected 293T cells.
Assay [3] deals with T3, BFLF2 (EBV hook protein, soluble …). Nature of the assay: direct ELISA, BFLF2 coated, His-tagged BFRF1 in serial dilutions, anti-His-HRP.
Experimental: The hook—groove protein interactions of the HCMV and EBV NECs was analyzed at the level of soluble recombinant proteins, using a direct ELISA type binding assay, in which the hook protein was coated to microtiter plates, and the His-tagged groove proteins added at different concentration.
Unspecific binding was blocked with 1% BSA in 0.1 M phosphate buffer pH 7.2 (200 μL/well, one hour). Plates were then incubated with 100 μL/well of His-tagged groove protein solution (pUL50 and BFRF1, respectively) at serial dilutions, starting from 2.5 μg/mL and 15 μg/mL, respectively, for one hour. Bound protein was detected using 100 μL/well anti-His-HRP conjugate from Sigma at a 1:10.000 dilution. All proteins and antibodies were in 0.1 M phosphate buffer pH 7.2, containing 0.1% BSA and 0.01% Tween20. Plates were washed four times with 0.01% Tween 20 in 0.1 M phosphate buffer pH 7.2 (300 μL/well) after each incubation step. Plates were developed with 100 μL/well OPD (1 mg/mL) in the presence of 0.03% H₂O₂ for approximately 10 minutes in the dark. […] All data points present means of duplicates.
The target in assay [4] is B2. Nature of the assay: coimmunoprecipitation, transiently transfected 293T cells.
Assay [5] concerns the target B7. The description is as above.

Non-standard residues stand in square brackets, D forms with d. *: point of attachment. Bio = O=C1N[C@H]2[C@H](CS[C@H]2CCCCC(=O)*)N1; Aoa = not defined here

With B1, in assay [1], the IC50 came to 114 nM.

Turning to B2, in assay [2], the binding result is “binds”.

As to B3, the EC50 in assay [3] was determined as 122 nM.

In the case of B4, in assay [4], the binding result is recorded as “no binding”.

Regarding B5, in assay [1], the IC50 stood at 2600 nM and the fold lower inhibitory activity than the HCMV hook peptide was 22 fold.

On to B6, for which the binding result is given as “no binding” in assay [4] and “binds” in assay [5].

Take B7: the binding result in assay [2] is listed as “no binding”.
